Laboratory results reported in the RNAGym collection of RNA variant scans (doi:10.1021/acssynbio.7b00057).

B1: Pistol ribozyme (parent)
chain: GGGUCGUUGUUCCAUAAUCGCGUGGAUAUGGCACGCAAGUUUCUACCGGGCACCGUAAAUGUCCGACUGGAGCCGUUCGGGCGGCUAUAAACAGACCUCAGGCCCGAAGCGUGGCGGCACCUGCCGCCGGUGGUAAAAAAGAUCGGAAGAGCACACGUCU

Variants of: B1
Test: aptazyme ON/OFF ratio, guanine; higher = stronger switching; co-transcriptional cleavage with and without guanine

In order of rising “aptazyme ON/OFF ratio” value:
1. U8A G9U U10C U11C C13A  1
2. U7A U8C U10C U11C C13A  1.03
3. U8G G9C U10C C12U  1.03
4. U11G C13G  1.03
5. U7A U8A G9U U10C U11C C12G C13U  1.04
6. U7A U8G U10G C12A C13A  1.04
7. U7G U8C G9U U10G U11C C12G C13G  1.04
8. U7A U8G G9A U10A U11C C13U  1.04
9. U8G G9C U10G U11C C12G C13G  1.05
10. U8G G9C U10A U11C C12G C13G  1.05
11. U8G G9C C12G C13U  1.05
12. U7C G9C U10C U11G C12A C13G  1.05
13. U7C U8G G9C U10C U11C C12G  1.05
14. G9A U10G U11A C13U  1.05
15. U7G G9A U10G U11A C12A C13A  1.06
16. U8A G9C U11C C13U  1.06
17. U7A U8G G9A U10C U11C C12U C13A  1.06
18. U7C U8C U10A C13A  1.06
19. U7A U8A U10A C13G  1.06
20. U8C G9A U10A U11C C13U  1.06
21. U8A G9U U10C C12A C13G  1.06
22. U7G U8C G9A U10G U11A C12U  1.06
23. U7A U8C G9C C12G C13A  1.07
24. U7A U8C G9C C12A C13U  1.07
25. U7A U8C G9C U10G C12A C13U  1.07
26. U7G U10G U11C  1.07
27. U7C U8C U10G U11G C12U C13U  1.08
28. U7A U8C U10G U11G C12G C13A  1.08
29. U7C U8C G9C U10A U11A C12G  1.08
30. U8C G9C C12U  1.08
31. U7G U8A G9U U11C  1.08
32. U8A G9C U10C U11G C13A  1.08
33. U7G U8C U10G U11G C12G C13G  1.08
34. U7A U8G G9U U10A U11G C12U C13A  1.08
35. U7A U8C U10G U11A C13U  1.09
36. U7C U8G U11A C12U C13A  1.09
37. U7A G9C U10G U11C C12U C13U  1.09
38. U7G U8C G9C U10C U11C C12G C13A  1.09
39. U7G U8A G9A U10G U11C C13A  1.09
40. U7A U8C G9U U10C U11A C12A C13G  1.1
41. U7G U8G G9U U11C C13G  1.1
42. U7C U8C U10G C12U C13G  1.1
43. U7A U8C G9A U11C C13U  1.1
44. U7C U8G G9U U10G U11A C13A  1.1
45. U8G G9U U11C C13A  1.1
46. U8C G9C U10G C13A  1.1
47. U8G G9U C13G  1.1
48. U7A U8A G9A U10C U11A C12G C13U  1.1
49. U10A C13G  1.1
50. U7C U8C G9C U10A U11G C12G C13U  1.1
51. U7G U8A G9U U11C C12A C13A  1.1
52. U7C G9C U10G U11G  1.11
53. U7G G9A U10G U11G C12G C13A  1.11
54. G9C U10G U11A C12G C13A  1.11
55. U7C G9U U10G U11A C12G C13A  1.11
56. U7G U8C G9C U10A U11A C12G C13G  1.11
57. U7G G9C U10G C12A C13G  1.11
58. U8C G9C U10G U11G C12G C13U  1.11
59. U8G U10C U11A C12A C13G  1.11
60. U7A G9U U11C C12G C13A  1.11
61. U7G U8G U10C U11C C13U  1.12
62. U7A U8A U10C U11A C12G C13A  1.12
63. U7G U8G G9A U11G C12G C13A  1.12
64. U7G U8C G9A U10C C12G C13A  1.12
65. U7C U8A G9C U10A U11C C12U C13U  1.12
66. U8G G9C U10G U11G C13G  1.12
67. U7G U8G G9U U10G U11G C12A  1.13
68. U7C U8C G9U U10C U11A C12U C13A  1.13
69. U7C U8C G9A U10A U11G C12U C13A  1.13
70. U7C U8A G9U U11C C12A  1.13
71. U7G U8C G9C U10A U11A C12G C13U  1.13
72. U7C U8C G9C U11A C13A  1.13
73. U7G G9A U10A C12A C13G  1.14
74. U7A G9U U10C U11G C12G C13A  1.14
75. U8G U10A U11A C12U C13U  1.14
76. U8A U10G U11C C12A C13G  1.14
77. U8C U10G C13G  1.15
78. G9C U10G C12A C13A  1.15
79. U7C U8C G9U U10A U11C C12G C13U  1.15
80. U8A G9C U10G U11A C12G C13U  1.15
81. U8G U10C U11A C13A  1.15
82. U7C U8G G9C U11A C12A C13A  1.15
83. U7G U10G U11G C13A  1.16
84. U8G G9A U10G C12U C13G  1.16
85. U7A U8A G9A U11G C12G C13A  1.16
86. U7G U8C G9U U10A C12U C13G  1.16
87. U7C G9U U11G C12G C13G  1.17
88. U7C U8A G9A U10C U11C C12G C13G  1.17
89. U7A U8G G9U U11C C12U C13A  1.17
90. U7G G9C U11G C13U  1.17
91. U7A U8G U10G C12A  1.17
92. U7A U8G G9C U10A U11C C12A C13A  1.17
93. U7A G9U U10G U11C C12G C13G  1.17
94. U7A U8A G9C U11A C13U  1.17
95. U7C U8G G9C U10A U11G C12G C13U  1.18
96. U8A G9C U10G C12A  1.18
97. U7G U8C G9U C12U C13A  1.18
98. G9C U10A C12G C13G  1.18
99. U7G U8G U10C U11C C12G  1.18
100. U8G U10C U11G C12G C13G  1.18
101. U7C U8A U10C C12G C13A  1.19
102. U7C U8C G9A U10G U11A C12U C13G  1.19
103. U8A G9U U10C U11G C12A C13A  1.19
104. U7A U8G G9A C12G C13A  1.19
105. U7A U8C U10G U11G C13A  1.2
106. U7A G9U U10C U11G C13U  1.2
107. U7A U8G U10A U11G C12U C13G  1.21
108. U7A U8A G9C U11A C12G C13U  1.21
109. U7C U8C G9A U11A C12G  1.21
110. U10C C12U C13U  1.21
111. U7C U8C G9A U11A C12U C13U  1.21
112. U7C U11C C12U C13G  1.22
113. U7G U8G G9A U11G C12U C13A  1.23
114. U7G G9C U10C C12G C13U  1.23
115. U10A U11C C12A C13U  1.23
116. U7C G9U U10A U11C C12A C13U  1.23
117. G9C U11G C13A  1.23
118. U8G G9A U11G C12U C13U  1.24
119. U7A G9A U10C U11A C12A  1.24
120. U7A U8A G9C U10G C13A  1.24
121. U7A U8C G9A U10A U11A C12U  1.25
122. U8C U11A C12G  1.25
123. U7C U8G G9A U10A U11G C12U C13G  1.25
124. U7G U10A U11G C12G C13G  1.26
125. U7C U8C G9U U10C U11A C12A  1.26
126. U7C U8A G9A C12G  1.26
127. U7C U8G U10G U11C C12G C13U  1.26
128. U7C U8A U10A U11A C12U  1.26
129. U7A U8G G9A U10A C13U  1.26
130. U7A U8G C12G C13G  1.27
131. U7A U8G G9U U10G C12A C13A  1.27
132. U8G U11A C12A C13U  1.28
133. U7G U8G G9U U10C C13U  1.28
134. U7G U8A U10A U11C C12G C13A  1.28
135. U7A U8C G9A U11G  1.28
136. U7A U8C G9U U10A U11A C12A  1.28
137. U7A G9U C12A C13U  1.28
138. U7C U8C C12U C13U  1.29
139. U7G G9U U10A U11A C12A  1.3
140. U7G U8G U10A C12A C13G  1.3
141. U7C U8A G9A U10C U11G C12G  1.31
142. U7G G9U U11G C12U C13A  1.31
143. U7C U8G G9C U10A U11G C12U  1.31
144. U7A U8G U10C C13G  1.32
145. U7A U8G G9A U10A C12G C13G  1.33
146. U7A U10G U11C C12A C13A  1.33
147. U7A U8A G9A U11A C12U  1.35
148. G9A U11G C13A  1.37
149. U7C U8G G9C U10G U11A C12U C13A  1.38
150. U7C U8C G9A U11C C12A C13U  1.38
151. U8A G9U U10A U11G C12U C13U  1.4
152. U7A U8G G9A U11G C13U  1.4
153. G9U U10A C12U  1.41
154. U7A U8G U10A U11G C12G C13U  1.46
155. U8A G9U C12A C13A  1.52
156. U8A G9U U10A U11A C12U C13U  1.53
157. U7A G9C U10G C12U C13U  1.56
158. U8C G9U U10G C12A C13U  1.57
159. U7A U8C U10G U11C C12G C13U  1.57
160. U7C U10G  1.65
161. U10A U11A C12U C13U  1.69
162. G9A U10C U11A C12U  1.78
163. U7G U8C G9C U11C C12A  1.9
164. U7G U8A U10C C12U  2.18
165. U7G U8G U10A U11A  2.25
166. U7G U8C U10A U11A  2.71
167. G9U  4.29
